Measured values as given in patent US20120329997A1 (Hoffmann-La Roche, published 2012).
Like-named read-outs stand apart in the source and are kept apart here.

Experiments:
[1] = biological target: CSF-1R ECD (R&D-Systems 329-MR or in-house subcloned pCMV-presS-HisAvitag-hCSF-1R-ECD) (human) (UniProt P07333); assay: SPR cross-competition, 25 C; second antibody on CSF-1R held by captured Antibody 1; competitor <CSF-1R>10A4.1G11 (Antibody 1)
[2] = biological target: CSF-1R ECD (R&D-Systems 329-MR or in-house subcloned pCMV-presS-HisAvitag-hCSF-1R-ECD) (human) (UniProt P07333); assay: SPR cross-competition, 25 C; second antibody on CSF-1R held by captured Antibody 1; competitor SC-02, clone 2-4A5 (Antibody 1)
[3] = biological target: mutant CSF-1R L301S Y969F (human, UniProt P07333 20-972); assay: cell-based or functional assay
[4] = biological target: CSF-1R ECD (R&D-Systems 329-MR or in-house subcloned pCMV-presS-HisAvitag-hCSF-1R-ECD) (human) (UniProt P07333); assay: SPR cross-competition, 25 C; second antibody on CSF-1R held by captured Antibody 1; competitor <CSF-1R>7H5.2G10 (Antibody 1)
[5] = biological target: T1, full-length wildtype CSF-1R (wt CSF-1R) (human, UniProt P07333 20-972); assay: cell-based or functional assay
[6] = biological target: CSF-1R ECD (R&D-Systems 329-MR or in-house subcloned pCMV-presS-HisAvitag-hCSF-1R-ECD) (human) (UniProt P07333); assay: SPR (BIACORE A100), 35 C, antibody captured, CSF-1R ECD in solution
[7] = biological target: huCSF-1R-huFc chimera (soluble extracellular domain) (human) (UniProt P07333); assay: competition ELISA, inhibition of CSF-1 binding to immobilized huCSF-1R-huFc
[8] = biological target: T2, CSF-1R ECD (R&D-Systems 329-MR or in-house subcloned pCMV-presS-HisAvitag-hCSF-1R-ECD) (human, UniProt P07333 20-517); assay: SPR (BIACORE A100), 35 C, antibody captured, CSF-1R ECD in solution
T2 construct: also called CSF-1R (R&D-Systems Cat. No. 329-MR)
Description: For affinity measurements 36 μg/ml anti mouse Fcγ antibodies (from goat, Jackson Immuno Reasearch JIR115-005-071) have been coupled to the chip surface for capturing the antibodies against CSF-1R. CSF-1R ECD (R&D-Systems 329-MR or in-house subcloned pCMV-presS-H isAvitag-hCSF-1R-ECD were added in various concentrations in solution. Association was measured by an CSF-1R-injection of 1.5 minutes at 35° C.; dissociation was measured by washing the chip surface with buffer for 10 minutes at 35° C. Anti CSF-IR SC-02, clone 2-4A5 (Santa Cruz Biotechnology, US; see also Sherr, C. J., et al., Cell 41 (1985) 665-676), which inhibits the ligand-receptor interaction, was used as reference control.

[9] = biological target: T1, full-length wildtype CSF-1R (wt CSF-1R); assay: cell-based or functional assay; remark: listed apart in the source
[10] = biological target: T1, full-length wildtype CSF-1R (wt CSF-1R); assay: cell-based or functional assay; remark: listed apart in the source
[11] = biological target: T3, huCSF-1R-huFc chimera (soluble extracellular domain) (human, UniProt P07333 20-517); assay: competition ELISA, inhibition of CSF-1 binding to immobilized huCSF-1R-huFc
T3 construct: also called huCSF-1R ECDhuFc chimera; not shown: human Fc
Description: At the beginning, plates were coated with […] goat F(ab′)₂ biotinylated anti Fcγ (Jackson ImmunoResearch., Cat. No. 109-006-170) for 1 hour (h).
Thereafter the wells were blocked with PBS supplemented with 0.2% Tween®-20 and 2% BSA (Roche Diagnostics GmbH, DE) for 0.5 h. 75 ng/ml of huCSF-1R-huFc chimera (soluble extracellular domain) was immobilized to plate for 1 h. Then dilutions of purified antibodies in PBS/0.05% Tween20/0.5% BSA were incubated for 1 h. After adding a mixture of 3 ng/ml CSF-1 (Biomol, DE, Cat. No. 60530), 50 ng/ml biotinylated anti CSF-1 clone BAF216 (R&D Systems, UK) and 1:5000 diluted streptavidin HRP (Roche Diagnostics GmbH, DE, Cat. No. 11089153001) for 1 h the plates were washed 6 times with PBST. Anti CSF-IR SC-02, clone 2-4A5 (Santa Cruz Biotechnology, US), which inhibits the ligand-receptor interaction, was used as positive control. Plates were developed with freshly prepared BM Blue® POD substrate solution (BM Blue®: 3,3″-5,5″-Tetramethylbenzidine, Roche Diagnostics GmbH, DE, Cat. No. 11484281001) for 30 minutes at RT. Absorbance was measured at 370 nm. […]

[12] = biological target: T1, full-length wildtype CSF-1R (wt CSF-1R); assay: cell-based or functional assay; remark: listed apart in the source

mutant CSF-1R L301S Y969F, sequence (P07333 20-972 L301S/Y969F limits assumed): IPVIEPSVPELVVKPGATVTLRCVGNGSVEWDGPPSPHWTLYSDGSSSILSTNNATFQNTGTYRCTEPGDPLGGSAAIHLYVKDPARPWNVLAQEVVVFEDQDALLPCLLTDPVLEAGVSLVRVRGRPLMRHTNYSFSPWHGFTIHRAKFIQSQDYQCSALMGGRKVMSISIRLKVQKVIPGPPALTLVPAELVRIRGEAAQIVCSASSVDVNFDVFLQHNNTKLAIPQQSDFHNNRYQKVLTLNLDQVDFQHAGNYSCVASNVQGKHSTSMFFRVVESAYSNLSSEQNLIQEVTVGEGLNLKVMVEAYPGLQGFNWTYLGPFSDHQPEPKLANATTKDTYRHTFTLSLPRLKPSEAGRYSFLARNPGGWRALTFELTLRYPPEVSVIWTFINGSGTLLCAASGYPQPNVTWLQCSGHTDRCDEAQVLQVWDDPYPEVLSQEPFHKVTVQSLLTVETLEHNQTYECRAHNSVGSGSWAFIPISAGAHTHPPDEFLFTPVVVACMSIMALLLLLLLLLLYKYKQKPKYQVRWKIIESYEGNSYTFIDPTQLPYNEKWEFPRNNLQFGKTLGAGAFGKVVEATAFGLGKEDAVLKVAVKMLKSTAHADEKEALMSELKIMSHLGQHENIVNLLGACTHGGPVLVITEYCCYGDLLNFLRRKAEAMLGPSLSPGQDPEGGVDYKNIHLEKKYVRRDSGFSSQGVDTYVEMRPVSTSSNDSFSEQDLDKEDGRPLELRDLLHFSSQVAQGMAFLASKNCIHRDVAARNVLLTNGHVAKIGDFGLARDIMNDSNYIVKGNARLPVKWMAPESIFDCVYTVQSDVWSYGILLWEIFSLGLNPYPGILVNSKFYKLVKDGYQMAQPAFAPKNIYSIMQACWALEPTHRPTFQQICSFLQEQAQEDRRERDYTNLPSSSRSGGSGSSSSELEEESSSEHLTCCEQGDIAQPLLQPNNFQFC
T1 sequence (P07333 20-972 limits assumed): as the sequence (P07333 20-972 L301S/Y969F limits assumed) above, with S282L, F950Y counted along it
T3 sequence (P07333 20-517, change not shown): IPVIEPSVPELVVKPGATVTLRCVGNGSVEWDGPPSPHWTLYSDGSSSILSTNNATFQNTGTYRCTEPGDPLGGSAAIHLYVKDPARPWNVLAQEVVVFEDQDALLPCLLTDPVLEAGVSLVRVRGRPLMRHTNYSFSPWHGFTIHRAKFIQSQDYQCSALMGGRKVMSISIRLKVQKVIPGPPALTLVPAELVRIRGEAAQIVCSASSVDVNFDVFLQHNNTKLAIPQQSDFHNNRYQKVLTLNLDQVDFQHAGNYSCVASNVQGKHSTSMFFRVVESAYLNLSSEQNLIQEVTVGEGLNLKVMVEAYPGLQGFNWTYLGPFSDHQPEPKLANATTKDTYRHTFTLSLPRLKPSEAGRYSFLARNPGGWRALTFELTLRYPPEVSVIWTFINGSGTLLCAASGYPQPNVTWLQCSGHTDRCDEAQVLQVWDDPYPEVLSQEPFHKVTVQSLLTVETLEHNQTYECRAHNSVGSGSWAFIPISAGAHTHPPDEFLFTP
T2 sequence (P07333 20-517 limits assumed): as the sequence (P07333 20-517, change not shown) above
CSF-1R ECD (R&D-Systems 329-MR or in-house subcloned pCMV-presS-HisAvitag-hCSF-1R-ECD) (human), sequence (P07333 20-517 limits assumed): as the sequence (P07333 20-517, change not shown) above
huCSF-1R-huFc chimera (soluble extracellular domain) (human), sequence (P07333 20-517, change not shown): as above

Anti CSF-1R SC-02, clone 2-4A5 (Santa Cruz Biotechnology, US) (antibody)
percentage (%) of expected binding response [1]: 24%
percentage (%) of expected binding response [2]: -2%
% survival, NIH3T Cells expressing Mutant CSF-1R, 10 ug/ml antibody [3]: 66%
percentage (%) of expected binding response [4]: 42%
% inhibition 10 ug/ml antibody concentration, BeWo tumor cells in 3D culture [5]: 40%
% survival, NIH3T Cells expressing wtCSF-1R, 10 ug/ml antibody [5]: 62%
IC50 CSF-1R Phosphorylation [5]: 0.412 µg/mL
IC50 [nM], inhibition of the survival of monocytes [5]: 2.4 nM
Kd [6]: 2.73 nM
koff [6]: 0.00139 s⁻¹
kon [6]: 509000 M⁻¹ s⁻¹
t1/2 [6]: 8.31 min
IC50 [7]: 0.0309 µg/mL

B1: <CSF-1R>7H5.2G10 (antibody, V domains shown)
VH: EVQLQQSGPELVKPGASMKISCKASGYSFTDYTVNWVKQSHGENLDWIGLIIPYNGGTSYNHNFRGKATLTVDKSSSTAYMELLSLTSEDSAVYYCTRGGGDFTTGYTMDYWGHGTSVTVSS
VL: DIQMTQSSSYLSVSLGGTVTINCKASDHIHDWLAWYQQQPGNAPRLLISGATSLETGVPSRFSGGGSGKDYSLIITSLQTEDFATYYCQQYWSIPWTFGGGTKLEIKR
notes: Mouse monoclonal antibody from a hybridoma (NMRI mice); also called deposited antibody DSM ACC2922
Kd [8]: 0.54 nM
koff [8]: 0.00038 s⁻¹
kon [8]: 700000 M⁻¹ s⁻¹
t1/2 [8]: 30.4 min
IC50 [nM], inhibition of the survival of monocytes [9]: 1 nM
% survival, NIH3T Cells expressing wtCSF-1R, 10 ug/ml antibody [10]: 2%
% survival, NIH3T Cells expressing Mutant CSF-1R, 10 ug/ml antibody [3]: 112%
IC50 [11]: 0.0269 µg/mL
IC50 CSF-1R Phosphorylation [12]: 0.049 µg/mL

B2: <CSF-1R>6G4.1C8 (antibody, V domains shown)
VH: EVQLQQSGPELVKPGASMKISCKASGYSFTDYTVNWVKQSHGENLDWIGLIIPYNGGTSYNHNFRGKATLTVDKSSSTAYMELLSLTSDDSAVYYCTRGGGDFTTGYTMDYWGQGTSVTVSS
VL: DIQMTQSSSYLSVSLGGTVTINCKASDHIHNWLAWYQQQPGNAPRLLISGATSLETGVPSRFSGGGSGKDYSLIITSLQTEDVATYYCQQYWSIPWTFGGGTKLEIKR
notes: Mouse monoclonal antibody from a hybridoma
Kd [8]: 0.52 nM
koff [8]: 0.00029 s⁻¹
kon [8]: 570000 M⁻¹ s⁻¹
t1/2 [8]: 39.4 min
% survival, NIH3T Cells expressing wtCSF-1R, 10 ug/ml antibody [10]: 3%
% survival, NIH3T Cells expressing Mutant CSF-1R, 10 ug/ml antibody [3]: 91%
IC50 [11]: 0.0212 µg/mL
IC50 CSF-1R Phosphorylation [12]: 0.0826 µg/mL

B3: <CSF-1R>10A4.1G11 (antibody, V domains shown)
VH: EVQLQQFGTELVKPGASVKISCKASGYTFTDYNMDWVKQSHGKSLEWIGDINPNYDSTTYNQKFKGKATLTVDKSSSTAYMELRSLTSEDTAVYYCARWRFFAMDYWGQGTSVTVSS
VL: DIQMTQSSSSFSVSLGDRVTITCKASEDIYNRLAWYQQKPGNAPRLLISGASSLETGVPSRFSGSGSGKDYTLSITSLQTEDVATYYCQQYWSIPWTFGGGTKLEIKR
notes: as for B2
Kd [8]: 1.77 nM
koff [8]: 0.0013 s⁻¹
kon [8]: 740000 M⁻¹ s⁻¹
t1/2 [8]: 8.89 min
IC50 [nM], inhibition of the survival of monocytes [9]: 0.4 nM
% survival, NIH3T Cells expressing wtCSF-1R, 10 ug/ml antibody [10]: 3%
% survival, NIH3T Cells expressing Mutant CSF-1R, 10 ug/ml antibody [3]: 144%
IC50 [11]: 0.0634 µg/mL
IC50 CSF-1R Phosphorylation [12]: 0.0154 µg/mL
